Patent CN114349851A (SHANGHAI NAI BIOTECHNOLOGY CO LTD, dated 2022)

Columns and labels:
新冠病毒全长S蛋白 (Spike-trimer) = target: T1, 新冠病毒全长S蛋白 (Spike-trimer) (SARS-CoV-2, UniProt P0DTC2 14-1213); assay: BLI (Octet RED96), His-tagged nanobody on Ni-NTA sensor
T1 construct: also called S-FL

B.1.617.1突变株RBD蛋白 = target: T2, B.1.617.1突变株RBD蛋白 (SARS-CoV-2 B.1.617.1, UniProt P0DTC2 319-541); assay: ELISA
T2 construct: domain: RBD

Delta(B.1.617.2)突变株RBD蛋白 = target: T3, Delta(B.1.617.2)突变株RBD蛋白 (SARS-CoV-2 Delta (B.1.617.2), UniProt P0DTC2 319-541); assay: BLI (Octet RED96), His-tagged nanobody on Ni-NTA sensor
T3 construct: domain: RBD; also called RBD-Delta; RBD-Delta(B.1.617.2)

B1: 纳米抗体C5 (C5克隆) (VHH)
VHH: DVQLVESGGGSVQAGGSLRLSCAASGKYSHLGFLGWFRQAPGKEREGVAAGLGAYEDGYYADSVKGRFTVSLDNAENTVYLQMNSLKPEDTALYYCAALVVFSRDSPEFLAQNYWGQGTQVTVSS
notes: also called C5抗体; C5 nanobody
Kd (新冠病毒全长S蛋白 (Spike-trimer)): 18 nM

B2: 纳米抗体C5D2 (VHH)
VHH: DVQLVESGGGSVQAGGSLRLSCAASGEYSQLRFLGWFRQAPGKEREGVAAGLGANEDGYYADSVKGRFTVSLDNAENTVYLQMNSLKPEDTALYYCAALVIFSHDGPEFLAQNYWGQGTQVTVSS
binding result (B.1.617.1突变株RBD蛋白): no binding | Kd (Delta(B.1.617.2)突变株RBD蛋白): 13.1 nM

B3: 纳米抗体C5G2 (VHH)
VHH: DVQLVESGGGSVQAGGSLRLSCAASGKFSHLVFLGWFRQAPGKEREGVAAGLGAYESGYYADSVKGRFTVSLDNAENTVYLQMNSLKPEDTALYYCAALVVLSRDNTEFIAHNYWGQGTQVTVSS
binding result (B.1.617.1突变株RBD蛋白): no binding | Kd (Delta(B.1.617.2)突变株RBD蛋白): 83.1 nM
